Assay results from patent US20260250388A1 (published 2026).
Changes are numbered by the printed parent chain.

T1: KRAS G12V peptide on HLA-A*11:01 (human)
T1 peptide: VVVGAVGVGK

T2: KRAS G12V peptide on HLA-A*11:01 (human)
T2 peptide: VVGAVGVGK

B1: TCR1 (TCR, V domains shown)
Valpha: LAKTTQPISMDSYEGQEVNITCSHNNIATNDYITWYQQFPSQGPRFIIQGYKTKVTNEVASLFIPADRKSSTLSLPRVSLSDTAVYYCLVGALSSSWYGQNFVFGPGTRLSVLP
Vbeta: DTAVSQTPKYLVTQMGNDKSIKCEQNLGHDTMYWYKQDSKKFLKIMFSYNNKELIINETVPNRFSPKSPDKAHLNLHINSLELGDSAVYFCASSQSGAQDGYTFGSGTRLTVV
B2: TCR1 (TCR)
TCR alpha: SLAKTTQPISMDSYEGQEVNITCSHNNIATNDYITWYQQFPSQGPRFIIQGYKTKVTNEVASLFIPADRKSSTLSLPRVSLSDTAVYYCLVGALSSSWYGQNFVFGPGTRLSVLPYIQNPDPAVYQLRDSKSSDKSVCLFTDFDSQTNVSQSKDSDVYITDKTVLDMRSMDFKSNSAVAWSNKSDFACANAFNNSIIPEDTFFPSPESSCDVKLVEKSFETDTNLNFQNLSVIGFRILLLKVAGFNLLMTLRLWSS
TCR beta: DTAVSQTPKYLVTQMGNDKSIKCEQNLGHDTMYWYKQDSKKFLKIMFSYNNKELIINETVPNRFSPKSPDKAHLNLHINSLELGDSAVYFCASSQSGAQDGYTFGSGTRLTVVEDLNKVFPPEVAVFEPSEAEISHTQKATLVCLATGFFPDHVELSWWVNGKEVHSGVSTDPQPLKEQPALNDSRYCLSSRLRVSATFWQNPRNHFRCQVQFYGLSENDEWTQDRAKPVTQIVSAEAWGRADCGFTSVSYQQGVLSATILYEILLGKATLYAVLVSALVLMAMVKRKDF
B3: TCR5 (TCR, V domains shown)
Valpha: GEDVEQSLFLSVREGDSSVINCTYTDSSSTYLYWYKQEPGAGLQLLTYIFSNMDMKQDQRLTVLLNKKDKHLSLRIADTQTGDSAIYFCAESPGGGADGLTFGKGTHLIIQP
Vbeta: GAVVSQHPSWVICKSGTSVKIECRSLDFQATTMFWYRQFPKQSLMLMATSNEGSKATYEQGVEKDKFLINHASLTLSTLTVTSAHPEDSSFYICSAPRGWAAGVYGYTFGSGTRLTVV
B4: TCR3 (TCR, V domains shown)
Valpha: DQQVKQNSPSLSVQEGRISILNCDYTNSMFDYFLWYKKYPAEGPTFLISISSIKDKNEDGRFTVFLNKSAKHLSLHIVPSQPGDSAVYFCAANSGYALNFGKGTSLLVTP
Vbeta: KAGVTQTPRYLIKTRGQQVTLSCSPISGHRSVSWYQQTPGQGLQFLFEYFSETQRNKGNFPGRFSGRQFSNSRSEMNVSTLELGDSALYLCASSLGGVGNEQFFGPGTRLTVL
B5: TCR8 (TCR, V domains shown)
Valpha: SQQGEEDPQALSIQEGENATMNCSYKTSINNLQWYRQNSGRGLVHLILIRSNEREKHSGRLRVTLDTSKKSSSLLITASRAADTASYFCATDAGGGADGLTFGKGTHLIIQP
Vbeta: DSGVTQTPKHLITATGQRVTLRCSPRSGDLSVYWYQQSLDQGLQFLIQYYNGEERAKGNILERFSAQQFPDLHSELNLSSLELGDSALYFCASSESRDSGNTIYFGEGSWLTVV
B6: TCR9 (TCR, V domains shown)
Valpha: B5 Valpha with A93S
Vbeta: B5 Vbeta with S94T, E95P, S96G
B7: TCR6 (TCR, V domains shown)
Valpha: AQSVTQPDIHITVSEGASLELRCNYSYGATPYLFWYVQSPGQGLQLLLKYFSGDTLVQGIKGFEAEFKRSQSSFNLRKPSVHWSDAAEYFCAVGASREYGNKLVFGAGTILRVKS
Vbeta: NAGVMQNPRHLVRRRGQEARLRCSPMKGHSHVYWYRQLPEEGLKFMVYLQKENIIDESGMPKERFSAEFPKEGPSILRIQQVVRGDSAAYFCASSPGGLLHFGNGTRLTVT
B8: TCR2 (TCR, V domains shown)
Valpha: DQQVKQNSPSLSVQEGRISILNCDYTNSMFDYFLWYKKYPAEGPTFLISISSIKDKNEDGRFTVFLNKSAKHLSLHIVPSQPGDSAVYFCAAKDNAGNMLTFGGGTRLMVKP
Vbeta: KAGVTQTPRYLIKTRGQQVTLSCSPISGHRSVSWYQQTPGQGLQFLFEYFSETQRNKGNFPGRFSGRQFSNSRSEMNVSTLELGDSALYLCASSLGTAEAFFGQGTRLTVV
B9: TCR7 (TCR, V domains shown)
Valpha: B8 Valpha with A92G, D94T, A96T, M99Q, L100F, T101Y, G104T, R107S, M109T, K111I
Vbeta: B8 Vbeta with L95S, T97H, A98P
B10: TCR4 (TCR, V domains shown)
Valpha: QKEVEQNSGPLSVPEGAIASLNCTYSDRGSQSFFWYRQYSGKSPELIMFIYSNGDKEDGRFTAQLNKASQYVSLLIRDSQPSDSATYLCAVERGSTLGRLYFGRGTQLTVWP
Vbeta: GAGVSQSPRYKVTKRGQDVTLRCDPISSHATLYWYQQALGQGPEFLTYFNYEAQPDKSGLPSDRFSAERPEGSISTLTIQRTEQRDSAMYRCASSLSSPTGGPINEQFFGPGTRLTVL

Target: T1, KRAS G12V peptide on HLA-A*11:01
Assay: CD69 by flow cytometry on TCR1-transduced Jurkat cells; K562-A*11:01 loaded with peptide at 10^-11 to 10^-6 M; FIG. 4C; full-length, on cells
Procedure: (§1) EC₅₀ values of different TCRs were assessed by spot numbers of IFN-γ release and CD69 expression after co-culture of specific TCR-transduced T cells with target cells loaded with graded concentrations of KRAS G12V-9 peptide ([…]) (SEQ ID NO: 91).

| EC50 of peptide | Binder |
| --- | --- |
| 31.3 nM | B1 |

Target: T2, KRAS G12V peptide on HLA-A*11:01
Assay: as above
Procedure: as §1

| EC50 of peptide | Binder |
| --- | --- |
| 2.24 nM | B1 |

target: HLA-A*11:01 / KRAS G12V 9-mer peptide … complex (human); assay: cell-based or functional assay

| EC50 of CD69 expression of TCR-transduced Jurkat cells after co-culture with K562-A*11:01 loaded with graded peptide concentrations (FIG. 4C) | Binder |
| --- | --- |
| 2.24 nM | B2 |

target: HLA-A*11:01 / KRAS G12V 10-mer peptide … complex (human); assay: cell-based or functional assay

| EC50 of CD69 expression of TCR-transduced Jurkat cells after co-culture with K562-A*11:01 loaded with graded peptide concentrations (FIG. 4C) | fold difference of EC50 (CD69 expression) between the 10-mer and the 9-mer peptide | Binder |
| --- | --- | --- |
| 31.3 nM | 10 fold | B2 |

Target: T2, KRAS G12V peptide on HLA-A*11:01
Assay: multimer staining

| binding result | Binder |
| --- | --- |
| recognises | B3 |
| recognises | B4 |
| recognises | B5 |
| recognises | B6 |
| recognises | B7 |
| recognises | B8 |
| recognises | B9 |
| recognises | B10 |

Target: T1, KRAS G12V peptide on HLA-A*11:01
Assay: killing
Source text: A lentiviral vector containing the TCR gene of the present invention was constructed and used to transduce T cells. The T cells transduced with different TCRs were co-cultured with: (1) HLA-A*11:01-expressing K562 cells loaded with different peptides (G12V-9 peptide: […] (SEQ ID NO: 91), G12V-10 peptide: […] (SEQ ID NO: 92), or WT peptide: […] (SEQ ID NO: 93)+[…] (SEQ ID NO: 94)); and (2) BxPC3 cells expressing HLA-A*11:01, co-expressing HLA-A*11:01 and KRAS G12V, or co-expressing HLA-A*11:01 and KRAS G12D (effector cell:target cell=5:1). After co-incubation for 16 h, the killing ability of T cells against target cells was evaluated by detecting LDH release. Statistical data are shown in FIGS. 2A and 2B (GraphPad Prism 8.0.1 software).

| Binder | binding result |
| --- | --- |
| B3 | recognises |
| B4 | recognises |
| B5 | recognises |
| B6 | recognises |
| B7 | recognises |
| B8 | recognises |
| B9 | recognises |
| B10 | recognises |
